PMC7117682
pEC50, pIC50: −log10 of the molar value.

What was measured:
[1] = target: CD47 naturally expressed on CD47(+) Jurkat T lymphoma cells (human (endogenous in Jurkat)) (UniProt Q08722); assay: laser scanning cytometry (LSC) on cells; titration of SIRPα-biotin on live DRAQ5-labelled Jurkat cells, 384-well, homogeneous (no wash), HEPES buffer (10 mM HEPES pH 7.5, 0.15 M NaCl), room temperature, neutravidin-Alexa488 0.5 μg/mL; SIRPα presented as a multimer on tetrameric neutravidin (avidity)
Chain of CD47 naturally expressed on CD47(+) Jurkat T lymphoma cells (human (endogenous in Jurkat)) (Q08722 19-323): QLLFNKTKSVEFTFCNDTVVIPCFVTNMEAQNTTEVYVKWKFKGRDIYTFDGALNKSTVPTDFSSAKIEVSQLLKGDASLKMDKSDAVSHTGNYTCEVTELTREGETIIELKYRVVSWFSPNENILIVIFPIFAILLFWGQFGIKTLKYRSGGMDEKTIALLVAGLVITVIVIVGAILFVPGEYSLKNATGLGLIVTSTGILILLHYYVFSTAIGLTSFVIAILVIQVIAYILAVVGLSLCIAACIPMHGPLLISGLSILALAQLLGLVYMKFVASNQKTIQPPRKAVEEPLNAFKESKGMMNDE

[2] = target: CD47 naturally expressed on CD47(+) Jurkat T lymphoma cells (human (endogenous in Jurkat)) (UniProt Q08722); assay: laser scanning cytometry (LSC) on cells; competition on live CD47(+) Jurkat cells, 384-well, homogeneous: a fixed concentration of SIRPα-biotin (20 nM) co-incubated with a titration of the competitor or inhibitor, neutravidin-Alexa488

SIRPα variant 2, biotin-conjugated (SIRPα-Avi-biotin d1 construct) (domain or fragment)
pEC50 [1]: 7.80 | fold more potent than SIRPαV1 [1]: 2 fold

SIRPα variant 2, non-biotin conjugated (cold) (domain or fragment)
pIC50 [2]: 5.52
